The values below come from patent publication US20200332017A1 (SALUBRIS CHENGDU BIOTECH, published 2020).

The target of test [1] is T1, cynomolgus monkey CD40-his protein (Acro biosystems, Cat # CD0-052H6) (cynomolgus monkey, UniProt G7PG38 21-193).
T1 construct: Bought reagent; also called Cynomolgus CD40-his
In words: SPR, Biacore; cynomolgus CD40-his. The source says: Briefly, goat anti-mouse IgG (GE healthcare, Cat # BR100838, Mouse Antibody Capture Kit) was covalently linked to a CM5 or a Protein G chip (carboxy methyl dextran coated chip) via primary amines, using a standard amine coupling kit provided by Biacore (GE healthcare, Pittsburgh, Pa., USA). Un-reacted moieties on the biosensor surface were blocked with ethanolamine. […] Then, human CD40-his (Acro biosystems, Cat # CD0-H5228) or cynomolgus monkey CD40-his protein (Acro biosystems, Cat # CD0-052H6) in HBS EP buffer (provided by Biacore) was flowed onto the chip at a flow rate of 30 μL/min. The antigen-antibody association kinetics was followed for 2 minutes and the dissociation kinetics was followed for 10 minutes. The association and dissociation curves were fit to a 1:1 Langmuir binding model using BIA evaluation software.

The target in test [2] is T2, human CD40-Fc protein (amino acid residue 21-193 of SEQ ID NO: 67 linked to N-terminus of amino acid residue … (human, biotin-labeled in the capture ELISA and in the benchmark blocking ELISA; unlabeled when coated in the ligand blocking ELISA).
T2 construct: also called biotin-labeled human CD40-Fc; human CD40-Fc-biotin
In words: capture ELISA, biotin human CD40-Fc; mAb at 16 ng/mL. As for the experimental part:
(§1) Plates were washed 4 times with wash buffer (PBS+0.05% Tween-20, PBST) and then blocked with 200 μl/well blocking buffer (5% w/v non-fatty milk in PBST) for 2 hours at 37° C. […] After a final wash, plates were incubated with 100 μl/well ELISA substrate TMB (Innoreagents, Cat # TMB-S-002). The reaction was stopped in 15 minutes at 25° C. with 50 μl/well 1M H₂SO₄, and the absorbance was read at 450 nm and plotted against antibody concentration. Data were analyzed using Graphpad Prism software and EC₅₀ values were reported.

Test [3] deals with T2, human CD40-Fc protein (amino acid …). In words: capture ELISA, biotin human CD40-Fc; mAb at 400 ng/mL. As for the experimental part:
as §1

The target is the same in test [4]. In words: capture ELISA, biotin human CD40-Fc; mAb at 0.64 ng/mL. As for the experimental part: as §1
Test [5] has the same target. In words: competitive ELISA; biotin human CD40-Fc in solution, competitor coated BM2. As for the experimental part: The ability of the mouse anti-CD40 antibodies of the present invention to block the binding of the Benchmark to human CD40 was measured using a competitive ELISA assay. […] The next day, plates were washed with wash buffer, and blocked with 5% w/v non-fatty milk in PBST for 2 hours at 37° C. Plates were then washed again using wash buffer. […] After incubation at 37° C. for 40 minutes, plates were washed 4 times using wash buffer. Then streptavidin conjugated HRP was added and incubated for 40 minutes at 37° C. to detect biotin-labeled human CD40-Fc bound to plates. Plates were washed again using wash buffer. Finally, TMB was added and the reaction was stopped using 1M H₂SO₄, and the absorbance was read at 450 nm. Data were analyzed using Graphpad Prism software and IC₅₀ values were reported.
(§2) In the capture ELISA test, a mouse control antibody targeting a protein other than CD40 was used.

Test [6] shares this target. In words: competitive ELISA; coated human CD40-Fc, competitor biotin human CD40L-his. As for the experimental part: Briefly, human CD40-Fc proteins (amino acid residue 21-193 of SEQ ID NO: 67 linked to N-terminus of amino acid residue 99-330 of SEQ ID NO.: 24) were coated on 96-well micro plates at 2 μg/mL in coating buffer (PBS) and incubated overnight at 4° C. The next day, plates were washed with wash buffer (PBS+0.05% Tween-20, PBST), and blocked with 5% w/v non-fatty milk in PBST for 2 hours at 37° C. Plates were then washed again using wash buffer.
(§3) Serially diluted the mouse anti-CD40 antibodies of the present invention or the controls (starting at 200 nM with a four-fold serial dilution) in 2.5% w/v non-fatty milk in PBST were prepared to the plates and incubated with the human CD40-Fc proteins at room temperature for 40 minutes. […] Plates were washed again. 100 μl/well of streptavidin conjugated HRP was added and incubated for 40 minutes at 37° C. Plates were washed again using wash buffer. Finally, TMB was added and the reaction was stopped using 1M H₂SO₄, and the absorbance was read at 450 nm. Data were analyzed using Graphpad Prism software and IC₅₀ values were reported.
as §2

Test [7] has the same target. In words: capture ELISA; antibody captured, biotin-labeled human CD40-Fc in solution. On the procedure:
as §1

Test [8] shares this target. In words: competitive ELISA; coated human CD40-Fc, competitor biotin human CD40L-his. As for the experimental part: as §3
This is another data set of the same source.

Test [9] has the same target. In words: ligand blocking ELISA: human CD40-Fc coated, antibody titrated, then biotin-labeled human CD40L-his (blocked ligand), streptavidin-HRP, OD(450-630). As for the experimental part:
as §3

B1: mouse anti-CD40 monoclonal antibody C1C1 (antibody, V domains shown)
VH: EVKLVESGGGLVKPGASLKLSCAASGFTFSNYGMSWVRQNSDKRLEWVASISSGGDDTYYPDNVKGRCTISRENAKNTLYLEMSSLKTEDTALYYCTRAGGKAMDYWGQGTSVTVST
VL: DIVLTQSPATLSVIPGNSVSLSCRASQSIRDNLHWYQQKSHESPRLLINYASQSISGIPSRFSGSGSGTDFTLTINSVETEDFGIYFCQQFNSWPLTFGGGTKLELK
notes: those are used here for the chimeric antibody only; also called Mouse C1C1; mouse C1C1
Take B1: in [1], the Kd amounted to 2.35 nM. For the same molecule, the “absorbance at 450 nm” value turned out to be 0.764 OD450 in test [2], 1.69 OD450 in test [3] and 0.142 OD450 in test [4]. The IC50 came to 0.461 nM in test [5], 5.4 nM in [6] and 5.4 nM in test [8]. The molecule further returned an EC50 in [7] of 0.000155 µg/mL. Also, the “IC50 (read off the curve)” value in [9] was roughly 0.8 µg/mL.

B2: chimeric antibody C1C1 (antibody, human IgG1, kappa, V domains shown)
VH: B1 VH
VL: DIVLTQSPATLSVIPGNSVSLSCRASQSIRDNLHWYQQKSHESPRLLINYASQSISGIPSRFSGSGSGTDFTLTINSVETEDFGIYFCQQFNSWPLTFGGGTKLELKR
notes: also called chC1C1; chimeric C1C1
For the molecule B2, the Kd in test [1] turned out to be 2.34 nM. Moreover, the entries for the “absorbance at 450 nm” value in test [2], in test [3] and in [4] were 0.329 OD450, 1.79 OD450 and 0.035 OD450, respectively. The figures for the IC50 in [5], in test [6] and in test [8] were 0.13 nM, 4.83 nM and 4.83 nM, respectively. In test [7], this molecule returned an EC50 of 0.000384 µg/mL. The “IC50 (read off the curve)” value in test [9] is roughly 0.8 µg/mL.
